Test results reported in paper PMC7272640, “Molecular docking, synthesis and biological evaluation of Vascular Endothelial Growth Factor (VEGF) B based peptide as antiangiogenic agent targeting the second domain of the Vascular Endothelial Growth Factor Receptor 1 (VEGFR1D2) for anticancer application” (Signal Transduction and Targeted Therapy, 2020).
Values belong to the molecule of their own block, whether it stands above or below them. Bridges are numbered along the chain shown (N, C = ends).

How the values were obtained:
VEGFR1 D2 = conditions: quantity not named as Kd in the text; cited from earlier work
Description: (§1) Subsequently, to verify the ability of VGB3 to form a complex with VEGFR1D2, microscale thermophoresis (MST) measurements were performed using a VEGFR1D2-labeled with VGB3 at increasing concentrations. As well as measuring the Kd between VGB3 and its receptor this functional test will also confirm whether the refolded protein VEGFR1D2 assumes the correct conformation. Fluorescently labeled VEGFR1D2 purified and titrated as 1:1 with VGB3.

[1] = target: entire extracellular portion of VEGFR1; conditions: VEGFA to entire extracellular portion of VEGFR1; no reference given; cited from earlier work
Description: as §1

VEGFR1 versus VEGFR2 = conditions: cited from earlier work
Source text: Tumor angiogenesis is regulated by the binding of VEGF to receptors (VEGFRs). The major mediator of tumor angiogenesis is VEGFA, more commonly referred to as VEGF. […] However, the role of the VEGFR1 in VEGF-mediated angiogenesis remains a mystery.

[2] = target: VEGFR1 domain 2 (Homo sapiens) (UniProt P17948); conditions: cited from earlier work
Chain of VEGFR1 domain 2 (Homo sapiens) (P17948 151-214): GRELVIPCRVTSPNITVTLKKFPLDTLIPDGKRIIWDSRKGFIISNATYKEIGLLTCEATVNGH

[3] = target: VEGFR-1 (as used in the ELISA-based displacement assay) (UniProt P17948)
Chain of VEGFR-1 (as used in the ELISA-based displacement assay) (P17948 27-1338): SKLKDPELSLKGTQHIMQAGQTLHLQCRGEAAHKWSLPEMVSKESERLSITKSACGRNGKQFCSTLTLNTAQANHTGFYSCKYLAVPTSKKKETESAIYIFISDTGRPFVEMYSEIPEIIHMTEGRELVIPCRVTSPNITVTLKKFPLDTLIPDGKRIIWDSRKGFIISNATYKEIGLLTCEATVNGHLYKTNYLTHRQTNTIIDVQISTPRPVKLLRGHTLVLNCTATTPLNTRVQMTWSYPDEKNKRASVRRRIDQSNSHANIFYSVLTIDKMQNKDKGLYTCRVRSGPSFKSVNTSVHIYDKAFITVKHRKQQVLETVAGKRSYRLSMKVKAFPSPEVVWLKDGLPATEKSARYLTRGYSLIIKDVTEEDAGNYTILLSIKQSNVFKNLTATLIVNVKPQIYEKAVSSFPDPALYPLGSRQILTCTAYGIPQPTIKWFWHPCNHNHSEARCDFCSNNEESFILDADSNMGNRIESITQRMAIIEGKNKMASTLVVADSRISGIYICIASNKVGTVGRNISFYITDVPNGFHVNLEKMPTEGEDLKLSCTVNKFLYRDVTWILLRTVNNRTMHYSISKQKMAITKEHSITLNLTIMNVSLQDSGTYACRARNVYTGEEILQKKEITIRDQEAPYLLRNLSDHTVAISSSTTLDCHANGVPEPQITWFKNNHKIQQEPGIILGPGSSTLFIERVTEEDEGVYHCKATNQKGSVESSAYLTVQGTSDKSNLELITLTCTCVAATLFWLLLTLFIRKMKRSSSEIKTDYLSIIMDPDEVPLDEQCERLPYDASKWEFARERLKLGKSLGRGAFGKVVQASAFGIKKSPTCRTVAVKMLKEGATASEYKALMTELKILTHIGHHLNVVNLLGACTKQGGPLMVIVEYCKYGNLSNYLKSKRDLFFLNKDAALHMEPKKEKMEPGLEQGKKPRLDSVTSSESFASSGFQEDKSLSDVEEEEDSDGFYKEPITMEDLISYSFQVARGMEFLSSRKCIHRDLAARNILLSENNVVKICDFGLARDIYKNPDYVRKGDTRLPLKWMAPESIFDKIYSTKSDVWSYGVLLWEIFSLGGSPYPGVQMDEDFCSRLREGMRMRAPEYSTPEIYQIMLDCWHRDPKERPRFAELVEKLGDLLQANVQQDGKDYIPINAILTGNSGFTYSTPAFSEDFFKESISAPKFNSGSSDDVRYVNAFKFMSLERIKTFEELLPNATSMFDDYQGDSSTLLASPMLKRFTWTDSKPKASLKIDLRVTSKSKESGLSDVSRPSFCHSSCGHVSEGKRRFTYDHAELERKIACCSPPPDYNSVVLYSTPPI

[4] = target: VEGFR-1 (as used in the ELISA-based displacement assay) (UniProt P17948); experiment: ELISA; VEGFR-1-binding ELISA-based displacement assay; displacement of btVEGF165 (100 pM) by VGB3
[5] = target: T1, His-tagged VEGFR1D2 (second extracellular domain of Vascular Endothelial Growth Factor Receptor 1) (UniProt P17948 129-226, fluorescently labeled); experiment: MST; fixed concentration of fluorescently labeled VEGFR1D2; VGB3 titrated at increasing concentrations, initial concentration of ligand 0.25 mM; conditions: both partners purified
T1 construct: VEGFR1 (Flt-1), second extracellular domain; The PDB entries are the cited complexes of VEGFR1D2 used for the design, not necessarily the limits of this construct
T1 sequence (P17948 129-226): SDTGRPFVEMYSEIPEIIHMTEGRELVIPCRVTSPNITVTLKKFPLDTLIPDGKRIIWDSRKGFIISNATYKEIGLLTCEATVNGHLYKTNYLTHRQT

Molecule: VEGF
tight association between VEGFR1 D2 and VEGF (VEGFR1 D2): 113 pM
Kd [1]: ~50 nM
affinity of VEGFR1 for VEGF, times higher than VEGFR2 (VEGFR1 versus VEGFR2): 10 times

Molecule: VEGFA (from UniProt P15692)
Kd [2]: 50 nM

inhibition of VEGF165 (0.75 pM)-stimulated proliferation of 4T1 mammary carcinoma cells (MTT assay), IC50 [3]: 30 nM
percent displacement of btVEGF165 (100 pM) at 100 μM VGB3 [4]: 63%
Kd [5]: 1960 ± 690 nM
stoichiometry N [5]: 1
B1: VGB3 (mimetic decapeptide based on VEGFB) (peptide)
peptide: H-ECRPPDDGLC-OH
modifications: disulfide 2-10 (inferred)
notes: VEGFB, strand beta7, printed as 102-ECRP-105; VEGFB, loop connecting beta3 to beta4, printed as 62-PDDGL-66; Cys residue added to the C terminus to make the disulfide bond; also called VGB3 peptide; source: synthetic peptide (solid-phase peptide synthesis)
